Consider two molecules from patent US20040180823A1 (BURNHAM INSTITUTE, published 2004).

Ends that are not written are not given here.

The target in assay [1] is T1, histidine-tagged mouse EphA2 Fc fusion protein (R&D Systems) (mouse, UniProt Q03145 26-535, limits assumed).
T1 construct: Bought; not shown: Fc portion and histidine tag
Put plainly: SPR (BIAcore 3000), EphA2 Fc coupled to chip, equilibrium binding.

In assay [2] the target is T2, EphB4 Fc fusion protein.
T2 construct: Eph receptor Fc fusion
T2 sequence (P54761 16-539): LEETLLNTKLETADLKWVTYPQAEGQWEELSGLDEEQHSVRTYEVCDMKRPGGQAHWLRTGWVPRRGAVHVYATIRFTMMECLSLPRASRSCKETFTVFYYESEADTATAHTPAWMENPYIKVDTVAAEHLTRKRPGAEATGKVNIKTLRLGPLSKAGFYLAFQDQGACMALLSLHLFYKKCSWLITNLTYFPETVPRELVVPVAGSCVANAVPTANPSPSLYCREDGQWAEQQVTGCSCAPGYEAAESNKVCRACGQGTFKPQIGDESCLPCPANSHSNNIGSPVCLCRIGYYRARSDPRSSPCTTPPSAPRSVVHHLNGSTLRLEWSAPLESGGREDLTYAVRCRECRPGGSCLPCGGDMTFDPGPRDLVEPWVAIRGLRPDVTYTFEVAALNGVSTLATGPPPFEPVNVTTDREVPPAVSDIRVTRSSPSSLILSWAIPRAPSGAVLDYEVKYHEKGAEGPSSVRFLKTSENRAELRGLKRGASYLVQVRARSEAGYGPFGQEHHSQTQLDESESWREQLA
Put plainly: immobilized peptide capturing Eph receptor Fc (methods of Example 2).
Description: Bound Eph receptors were detected with anti-human Fc antibody conjugated to alkaline phosphatase (AP) (Promega, Madison, Wis.). […] Substrates were 2,2′-azino-bis(3-ethylbenzthiazoline-6-sulfonic acid) for horseradish peroxidase and p-nitrophenyl phosphate for AP.

T1 sequence (Q03145 26-535 limits assumed): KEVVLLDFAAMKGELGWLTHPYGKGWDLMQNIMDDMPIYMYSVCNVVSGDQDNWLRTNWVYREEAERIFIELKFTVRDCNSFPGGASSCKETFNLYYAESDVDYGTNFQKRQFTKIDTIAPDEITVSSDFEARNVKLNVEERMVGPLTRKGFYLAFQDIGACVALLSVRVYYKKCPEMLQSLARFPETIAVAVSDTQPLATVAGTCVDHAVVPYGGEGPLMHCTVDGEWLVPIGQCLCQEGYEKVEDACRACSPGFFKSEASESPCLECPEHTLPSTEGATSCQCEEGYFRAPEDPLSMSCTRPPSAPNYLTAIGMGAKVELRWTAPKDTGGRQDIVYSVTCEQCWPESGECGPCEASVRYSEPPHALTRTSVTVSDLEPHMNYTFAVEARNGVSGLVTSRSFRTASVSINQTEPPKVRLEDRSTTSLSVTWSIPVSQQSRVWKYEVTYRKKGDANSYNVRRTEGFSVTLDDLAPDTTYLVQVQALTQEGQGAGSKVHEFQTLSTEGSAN

The molecule SWLAYPGAVSYRGSGSK (also: biotinylated, position not given here) [SWL peptide (synthetic, biotinylated)] had a Kd in assay [1] of 678 nM.
Turning to DALNDWLLFRPWGSGSK (also: biotinylated, position not given here) [DAL synthetic peptide (biotinylated)], in assay [2], the “fold more EphB4 bound compared to other EphB family receptors” value was determined as 4 fold.
